Target: p190RhoGAP-A (endogenous) (human (endogenous in HeLa)) (UniProt Q9NRY4)
Experiment: co-IP

UniProt Q9NRY4, sequence (Q9NRY4 whole entry): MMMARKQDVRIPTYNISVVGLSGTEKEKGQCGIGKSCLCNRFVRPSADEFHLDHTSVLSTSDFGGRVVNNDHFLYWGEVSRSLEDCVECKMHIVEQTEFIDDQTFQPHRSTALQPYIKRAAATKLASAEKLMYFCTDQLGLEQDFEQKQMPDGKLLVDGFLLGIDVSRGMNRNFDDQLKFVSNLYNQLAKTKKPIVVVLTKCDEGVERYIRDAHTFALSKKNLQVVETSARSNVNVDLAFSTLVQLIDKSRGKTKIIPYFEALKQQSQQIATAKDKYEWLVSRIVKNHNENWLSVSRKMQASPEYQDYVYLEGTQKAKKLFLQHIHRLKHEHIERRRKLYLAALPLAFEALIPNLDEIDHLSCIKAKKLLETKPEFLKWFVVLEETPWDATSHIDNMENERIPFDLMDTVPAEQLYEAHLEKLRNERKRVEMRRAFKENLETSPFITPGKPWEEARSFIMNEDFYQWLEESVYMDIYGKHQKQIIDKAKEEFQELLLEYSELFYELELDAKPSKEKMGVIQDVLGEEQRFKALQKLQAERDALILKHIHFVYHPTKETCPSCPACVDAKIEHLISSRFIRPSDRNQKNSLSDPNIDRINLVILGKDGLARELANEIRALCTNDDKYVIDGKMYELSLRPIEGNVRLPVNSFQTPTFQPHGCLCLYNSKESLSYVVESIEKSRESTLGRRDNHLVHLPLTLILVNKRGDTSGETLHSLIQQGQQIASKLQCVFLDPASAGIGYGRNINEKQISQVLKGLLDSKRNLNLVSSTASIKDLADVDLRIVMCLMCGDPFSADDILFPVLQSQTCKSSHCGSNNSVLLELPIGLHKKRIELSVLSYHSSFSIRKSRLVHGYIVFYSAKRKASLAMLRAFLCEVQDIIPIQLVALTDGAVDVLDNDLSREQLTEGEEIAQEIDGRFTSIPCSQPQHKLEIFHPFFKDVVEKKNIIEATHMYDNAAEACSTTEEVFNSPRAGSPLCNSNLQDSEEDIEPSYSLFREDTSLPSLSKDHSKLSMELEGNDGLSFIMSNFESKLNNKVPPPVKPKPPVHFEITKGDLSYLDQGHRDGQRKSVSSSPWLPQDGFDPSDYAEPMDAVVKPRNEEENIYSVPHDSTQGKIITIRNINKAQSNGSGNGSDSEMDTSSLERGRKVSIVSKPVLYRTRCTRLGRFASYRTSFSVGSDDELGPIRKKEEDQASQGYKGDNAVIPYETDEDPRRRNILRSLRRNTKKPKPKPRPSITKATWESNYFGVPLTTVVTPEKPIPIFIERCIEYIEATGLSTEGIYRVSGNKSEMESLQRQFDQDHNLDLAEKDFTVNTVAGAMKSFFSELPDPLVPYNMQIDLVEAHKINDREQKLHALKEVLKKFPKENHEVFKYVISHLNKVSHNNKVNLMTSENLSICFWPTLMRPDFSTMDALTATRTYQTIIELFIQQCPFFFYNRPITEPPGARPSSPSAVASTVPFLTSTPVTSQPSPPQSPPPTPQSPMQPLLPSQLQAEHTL

## FLAG-tagged ECT2C (amino acids 414-883) (domain or fragment)
  IP/Total (amount co-immunoprecipitated by anti-p190 vs. total protein expressed): 1.5

## FLAG-tagged ECT2N (amino acids 1-334) (domain or fragment)
  IP/WL (amount co-immunoprecipitated by anti-p190 vs. total protein expressed): 0.2

## FLAG-tagged wild type ECT2 (pCEV29F3-ECT2) (natural protein)
  abundance of the complex, percent of total p190 or ECT2: 2 to 4%

Reference: publication PMC2791401
